Results on two molecules are retold here after paper PMC3885797 (2014).

Usually Kd stands for the free concentration of one partner at which half of the binding sites on the other are occupied at equilibrium, for simple one-to-one binding.

The assay addresses T1, 6xHis-CTNNBL1Δ76 (human, UniProt Q8WYA6 77-563).
T1 chain: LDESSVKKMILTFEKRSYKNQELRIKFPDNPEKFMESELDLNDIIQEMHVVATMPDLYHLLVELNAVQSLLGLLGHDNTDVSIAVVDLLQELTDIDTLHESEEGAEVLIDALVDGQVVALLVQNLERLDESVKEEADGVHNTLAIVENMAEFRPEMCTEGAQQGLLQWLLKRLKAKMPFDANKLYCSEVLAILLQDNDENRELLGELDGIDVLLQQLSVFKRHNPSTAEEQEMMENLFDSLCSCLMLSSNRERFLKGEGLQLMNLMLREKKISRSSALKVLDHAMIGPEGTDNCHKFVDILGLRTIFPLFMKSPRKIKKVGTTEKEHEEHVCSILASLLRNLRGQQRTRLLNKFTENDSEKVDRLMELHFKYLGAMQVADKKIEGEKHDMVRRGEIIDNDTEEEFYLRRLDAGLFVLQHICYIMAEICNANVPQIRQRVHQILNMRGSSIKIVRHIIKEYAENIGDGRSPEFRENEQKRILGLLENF
The assay can be described thus: ITC; second site. In general terms: Isothermal titration calorimetry measures the heat released or taken up as one component is titrated into another.

B1: Prp31 NLS peptide (peptide)
chain: RKKRGGRRYRKMKE
modifications: Limits are the UniProt NLS motif (351-364); the exact peptide is shown only in Fig. 4B and may have different flanks
B1: the Kd was ~12 µM.

B2: CDC5L NLS3 peptide (peptide)
chain: KKRKRKR
modifications: Limits are the UniProt region required for CTNNBL1 interaction (200-206), taken as the NLS3 core; the assayed peptide is shown only in Fig. 4B and may have longer flanks
As for B2, the Kd is ~4 µM.
